The record followed here is patent US20260008847A1 (ELPISCIENCE SUZHOU BIOPHARMA, published 2026).

Broadly, the IC50 is the concentration needed to halve the response being measured. Read a low IC50 as greater potency in that assay. The term Kd denotes the free concentration of one partner at which half of the binding sites on the other are occupied at equilibrium, for simple one-to-one binding. As usually defined, the koff is the first-order rate constant of dissociation. By kon is commonly meant the rate constant with which the complex forms.

Experiment [1] has as its target T1, 6×His-tagged human LILRB2 ECD recombinant protein (human, UniProt Q8N423 22-458, limits assumed).
T1 construct: Bought protein; not shown: 6×His-tag
Put plainly: Octet tandem binning on captured 6×His LILRB2 ECD; competitor (Ab1) 043c.

The target in experiment [2] is T2, Human LILRB5 ECD recombinant protein with 6×His-tag (human, UniProt O75023 24-458, limits assumed).
T2 construct: Bought protein; not shown: 6×His-tag
T2 sequence (O75023 24-458 limits assumed): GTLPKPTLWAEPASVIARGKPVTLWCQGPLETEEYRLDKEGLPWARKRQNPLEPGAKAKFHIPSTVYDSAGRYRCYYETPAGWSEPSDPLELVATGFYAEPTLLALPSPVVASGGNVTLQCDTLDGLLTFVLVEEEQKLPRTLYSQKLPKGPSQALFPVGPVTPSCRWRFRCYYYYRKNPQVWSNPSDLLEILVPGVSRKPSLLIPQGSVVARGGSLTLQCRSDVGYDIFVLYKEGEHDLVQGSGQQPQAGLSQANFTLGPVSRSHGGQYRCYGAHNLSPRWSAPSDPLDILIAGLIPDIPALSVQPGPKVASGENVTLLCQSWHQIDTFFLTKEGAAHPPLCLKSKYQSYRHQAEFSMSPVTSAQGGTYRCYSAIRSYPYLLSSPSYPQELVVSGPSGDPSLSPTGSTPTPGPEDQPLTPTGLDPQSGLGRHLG
Put plainly: ELISA: plate coated with LILRB5 ECD recombinant protein, antibody at 0.5 ug/mL (method of example 3.2.1); mean OD450 printed over the bar [continued) I]. In general terms: ELISA stands for enzyme-linked immunosorbent assay.

The target in experiment [3] is T3, Human LILRB2 stably expressed on EL4 cells (EL4/LILRB2) (human, UniProt Q8N423 22-597).
T3 construct: also called EL4-LILRB2 cells; cell membrane human LILRB2
T3 sequence (Q8N423 22-597 limits assumed): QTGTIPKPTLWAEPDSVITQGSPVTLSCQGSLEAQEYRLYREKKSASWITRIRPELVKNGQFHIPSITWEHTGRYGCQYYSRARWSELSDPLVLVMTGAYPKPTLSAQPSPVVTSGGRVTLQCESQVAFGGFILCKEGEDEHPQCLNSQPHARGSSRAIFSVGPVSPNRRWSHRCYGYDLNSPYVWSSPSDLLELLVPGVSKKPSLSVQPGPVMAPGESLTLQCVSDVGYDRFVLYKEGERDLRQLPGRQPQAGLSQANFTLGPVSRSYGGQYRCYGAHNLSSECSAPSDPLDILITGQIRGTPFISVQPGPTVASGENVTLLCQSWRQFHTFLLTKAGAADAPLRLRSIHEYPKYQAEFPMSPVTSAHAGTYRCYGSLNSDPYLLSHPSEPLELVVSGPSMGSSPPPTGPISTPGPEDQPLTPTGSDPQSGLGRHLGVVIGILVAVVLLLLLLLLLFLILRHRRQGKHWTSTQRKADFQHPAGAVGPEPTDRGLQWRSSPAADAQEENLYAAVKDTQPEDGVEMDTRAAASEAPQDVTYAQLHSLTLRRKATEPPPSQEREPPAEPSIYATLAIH
Put plainly: competitive FACS on EL4/LILRB2 cells, blockade of HLA-G binding.
Procedure: (§1) The blocking activities were determined by quantitating the blockade of the ligands binding to EL4/LILRB2 cells.

Experiment [4] deals with Human LILRB4 ECD recombinant protein with 6×His-tag (human) (UniProt Q8NHJ6). Nature of the experiment: ELISA: plate coated with LILRB4 ECD recombinant protein, antibody at 0.5 ug/mL (method of example 3.2.1); mean OD450 printed over the bar [continued) H].
Experiment [5] has as its target T4, Human LILRA4 ECD recombinant protein with 6×His-tag (human, UniProt P59901 24-446).
T4 construct: range 1-446; Bought protein; not shown: 6×His-tag
Put plainly: ELISA: plate coated with LILRA4 ECD recombinant protein, antibody at 0.5 ug/mL (method of example 3.2.1); mean OD450 printed over the bar [continued) D].

Experiment [6] deals with T1, 6×His-tagged human LILRB2 ECD …. Put plainly: Bio-Layer Interferometry (Octet), 1:1 model, human LILRB2 ECD.
In experiment [7] the target is T4, Human LILRA4 ECD recombinant protein …. Put plainly: ELISA: plate coated with LILRA4 ECD recombinant protein [continued) D].
The target in experiment [8] is T3, Human LILRB2 stably expressed on EL4 …. Put plainly: Competitive FACS: EL4/LILRB2 cells preincubated with 10 ug/mL antibody, then MAG ECD added; inhibition of the ligand's binding to the cells [panel MAG].
Procedure: as §1
In experiment [9] the target is T5, Human LILRB1 ECD recombinant protein with 6×His-tag (human, UniProt Q8NHL6 24-458, limits assumed).
T5 construct: Bought protein; not shown: 6×His-tag
T5 sequence (Q8NHL6 24-458 limits assumed): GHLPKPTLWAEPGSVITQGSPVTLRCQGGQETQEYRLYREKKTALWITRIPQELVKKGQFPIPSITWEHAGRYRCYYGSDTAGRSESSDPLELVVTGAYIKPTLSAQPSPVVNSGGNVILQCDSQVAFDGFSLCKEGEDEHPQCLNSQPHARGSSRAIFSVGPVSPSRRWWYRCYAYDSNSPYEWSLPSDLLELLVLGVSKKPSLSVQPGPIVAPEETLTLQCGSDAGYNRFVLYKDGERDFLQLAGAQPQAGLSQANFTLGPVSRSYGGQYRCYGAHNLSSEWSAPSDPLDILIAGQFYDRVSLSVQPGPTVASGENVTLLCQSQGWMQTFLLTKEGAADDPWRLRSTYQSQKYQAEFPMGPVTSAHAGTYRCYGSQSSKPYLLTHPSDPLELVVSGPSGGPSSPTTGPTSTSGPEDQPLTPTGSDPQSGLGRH
Nature of the experiment: ELISA: plate coated with LILRB1 ECD recombinant protein, antibody at 0.5 ug/mL (method of example 3.2.1); mean OD450 printed over the bar [continued) F].

The target in experiment [10] is T6, Human LILRA1 ECD recombinant protein with 6×His-tag (human, UniProt O75019 17-461).
T6 construct: range 1-461; Bought protein; not shown: 6×His-tag
T6 sequence (O75019 17-461 limits assumed): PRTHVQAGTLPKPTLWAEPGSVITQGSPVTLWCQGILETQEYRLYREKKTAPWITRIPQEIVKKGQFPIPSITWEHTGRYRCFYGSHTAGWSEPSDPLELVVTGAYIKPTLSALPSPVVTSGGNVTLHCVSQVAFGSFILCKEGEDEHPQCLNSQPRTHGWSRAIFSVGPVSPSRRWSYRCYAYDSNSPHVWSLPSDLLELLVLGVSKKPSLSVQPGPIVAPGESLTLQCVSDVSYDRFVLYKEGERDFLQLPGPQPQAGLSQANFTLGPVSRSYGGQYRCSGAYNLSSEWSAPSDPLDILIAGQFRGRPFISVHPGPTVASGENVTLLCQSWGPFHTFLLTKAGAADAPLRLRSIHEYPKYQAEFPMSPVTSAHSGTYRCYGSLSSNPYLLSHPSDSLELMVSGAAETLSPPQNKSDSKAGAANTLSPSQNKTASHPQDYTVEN
Put plainly: ELISA: plate coated with LILRA1 ECD recombinant protein, antibody at 0.5 ug/mL (method of example 3.2.1); mean OD450 printed over the bar.

Experiment [11] addresses T7, Human LILRB3 ECD recombinant protein with 6×His-tag (human, UniProt O75022 24-443).
T7 construct: range 1-443; Bought protein; not shown: 6×His-tag
Nature of the experiment: ELISA: plate coated with LILRB3 ECD recombinant protein, antibody at 0.5 ug/mL (method of example 3.2.1); mean OD450 printed over the bar [continued) G].

Experiment [12] deals with T3, Human LILRB2 stably expressed on EL4 …. Nature of the experiment: Competitive FACS: EL4/LILRB2 cells preincubated with 10 ug/mL antibody, then ANGPTL1 added; inhibition of the ligand's binding to the cells [panel ANGPTL1].
Procedure: as §1
For experiment [13] the target is unchanged. Nature of the experiment: Competitive FACS: EL4/LILRB2 cells preincubated with 10 ug/mL antibody, then HLA-G complex tetramer added; inhibition of the ligand's binding to the cells [panel HLA-G].
Procedure: as §1
Experiment [14] shares this target. Put plainly: Competitive FACS: EL4/LILRB2 cells preincubated with 10 ug/mL antibody, then ANGPTL2 added; inhibition of the ligand's binding to the cells [panel ANGPTL2].
Procedure: as §1
For experiment [15], the target named is T8, Human LILRA2 ECD recombinant protein with His-tag (human, UniProt Q8N149 24-449).
T8 construct: range 24-449; Bought protein; not shown: His-tag
T8 sequence (Q8N149 24-449 limits assumed): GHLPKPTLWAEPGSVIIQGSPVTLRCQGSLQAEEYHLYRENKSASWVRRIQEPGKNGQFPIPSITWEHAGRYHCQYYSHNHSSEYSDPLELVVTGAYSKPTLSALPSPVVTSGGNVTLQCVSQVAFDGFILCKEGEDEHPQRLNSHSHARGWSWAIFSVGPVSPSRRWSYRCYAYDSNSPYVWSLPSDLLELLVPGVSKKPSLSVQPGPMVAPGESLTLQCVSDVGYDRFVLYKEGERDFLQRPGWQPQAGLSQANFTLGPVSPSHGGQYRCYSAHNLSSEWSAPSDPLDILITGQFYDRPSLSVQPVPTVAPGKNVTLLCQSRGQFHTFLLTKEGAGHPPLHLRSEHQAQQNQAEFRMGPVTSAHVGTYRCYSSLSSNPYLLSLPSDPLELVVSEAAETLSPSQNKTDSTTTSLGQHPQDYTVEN
Put plainly: ELISA: plate coated with LILRA2 ECD recombinant protein [continued) B].

Experiment [16] addresses T6, Human LILRA1 ECD recombinant protein …. Nature of the experiment: ELISA: plate coated with LILRA1 ECD recombinant protein.
Procedure: Briefly, 0.5 μg/mL anti-LILRB2 antibodies were incubated in human LILRB2 ECD recombinant protein-coated ELISA plate at 37° C. for 1 hour. After washing, horseradish peroxidase (HRP) labeled detection antibody was added and incubated at 37° C. for 1 hour. Color development was conducted by the addition of 100 μl/well of TMB (3,3′,5,5′-Tetramethylbenzidine) solution. After incubation at room temperature (RT) for 10-15 minutes, the reaction was stopped by adding 100 μl 1N HCl. Then the plates were read immediately using plate reader for optical density at 450 nm.
Experiment [17] has as its target T1, 6×His-tagged human LILRB2 ECD …. Nature of the experiment: Octet tandem binning on captured 6×His LILRB2 ECD; competitor (Ab1) J-19. (BLI is a label-free optical method that tracks binding on a fibre tip over time.)
Procedure: Briefly, the HIS1K sensors were hydrolyzed for 10 minutes followed by capture of 6×His-tagged human LILRB2 ECD recombinant protein to 0.3 nm. The LILRB2 captured sensors were then exposed to Ab1 and Ab2 in tandem or Ab2 directly. The binding signals of Ab2 to LILRB2 under different conditions were detected respectively. Finally, the relative binding signals of Ab2 in tandem were calculated by normalization. High relative binding signals represent low competition between Ab2 and Ab1 for binding antigen. Likewise, low relative association signals represent high competition between Ab2 and Ab1.
The target in experiment [18] is T7, Human LILRB3 ECD recombinant protein …. Nature of the experiment: ELISA: plate coated with LILRB3 ECD recombinant protein [continued) G].
Experiment [19] deals with T5, Human LILRB1 ECD recombinant protein …. Put plainly: ELISA: plate coated with LILRB1 ECD recombinant protein [continued) F].
The target of experiment [20] is T2, Human LILRB5 ECD recombinant protein …. Put plainly: ELISA: plate coated with LILRB5 ECD recombinant protein [continued) I].

T4 sequence (P59901 24-446 limits assumed): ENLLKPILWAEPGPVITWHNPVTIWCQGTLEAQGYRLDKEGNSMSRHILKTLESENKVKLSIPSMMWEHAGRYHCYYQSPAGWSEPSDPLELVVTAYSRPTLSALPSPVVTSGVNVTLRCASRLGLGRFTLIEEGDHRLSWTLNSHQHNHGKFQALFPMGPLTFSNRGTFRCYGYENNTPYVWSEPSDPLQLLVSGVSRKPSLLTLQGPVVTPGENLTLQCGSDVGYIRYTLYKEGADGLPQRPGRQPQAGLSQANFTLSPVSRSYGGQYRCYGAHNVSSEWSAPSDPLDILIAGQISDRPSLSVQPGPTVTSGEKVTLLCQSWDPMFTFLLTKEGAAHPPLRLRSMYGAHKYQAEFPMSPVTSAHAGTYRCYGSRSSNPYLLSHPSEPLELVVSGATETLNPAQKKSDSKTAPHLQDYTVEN
T1 sequence (Q8N423 22-458 limits assumed): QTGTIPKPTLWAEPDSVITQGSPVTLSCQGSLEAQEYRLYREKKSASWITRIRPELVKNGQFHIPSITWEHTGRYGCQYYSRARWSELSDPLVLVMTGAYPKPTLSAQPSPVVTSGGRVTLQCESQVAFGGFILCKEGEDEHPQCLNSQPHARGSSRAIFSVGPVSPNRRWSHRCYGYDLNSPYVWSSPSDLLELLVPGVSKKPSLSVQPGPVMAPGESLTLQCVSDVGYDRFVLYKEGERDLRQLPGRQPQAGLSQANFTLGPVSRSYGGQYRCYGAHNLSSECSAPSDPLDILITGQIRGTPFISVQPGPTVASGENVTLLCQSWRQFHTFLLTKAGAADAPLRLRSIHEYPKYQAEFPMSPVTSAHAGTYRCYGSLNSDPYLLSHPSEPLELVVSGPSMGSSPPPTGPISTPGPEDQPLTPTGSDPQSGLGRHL

B1: J-19 (antibody, V domains shown)
VH: QVTLKESGPGILQPSHTLSLTCSFSGFSLNTYAMGVSWIRQPSGKGLEWLASIWWNGNKYNNPSLKSRLTVSKDTSNNQAFLKVTSVDTADTATYYCAHSRIIRFTDYVMDAWGQGASVTVSS
VL: DIQMTQSPASLSTFLGEPVTIECRASEDIYNDLAWYQQKPGKSPQLLIYNANSLHTGVPSRFSGSGSGTQYSLKINSLQSEDVASYFCQQYYDYPLTFGSGTKLEIK
notes: Human IgG4 monoclonal antibody with S228P in the constant region, made according to WO 2019/126514 A2; also called benchmark antibody J-19
For B1, the “relative binding signal of Ab2 in tandem” value in experiment [1] is 96%; in experiment [17] it was -3%. The OD450 in [2] was determined as 0.09; in [4], 0.14; in [5], 0.17; in experiment [9], 0.1; in [10], 0.16; in experiment [11], 0.09. This molecule also came in with an IC50 in [3] of 0.04 nM. Also, the “TOP Blocking (%)” value in [3] was 100%. Also, the dissociation constant (Kd) in experiment [6] amounted to 2.14 nM. For the same molecule, in experiment [6], the koff is 0.00178 s⁻¹. In addition, the on-rate (kon) in experiment [6] worked out at 830000 M⁻¹ s⁻¹. In addition, the binding result in experiment [7], in [15], in experiment [16], in experiment [18], in experiment [19] and in [20] was “no binding (tested: 0.5 ug/mL)” in each case. Besides, the “Inhibition (%)” value in experiment [8] came out at 13%; in experiment [12], 70%; in [13], 100%; in [14] it was 97%.

B2: 043c (antibody, V domains shown)
VH: QVQLQQSGAELAKPGASVKLSCKASGYTFTSYWMYWVKQRPGQGLEWIGHINPSSGYTKYNQKFKDKATLTADKSSSTAYMQLSSLTYEDSAVYYCARDPNWDNYWGQGTTLTVSS
VL: DIVMTQSHKFMSTSVGDRVSITCKASQDVSIAVAWYQQKPGQSPKLLIYSASYRYTGVPDRFTGSGSGTDFTFTISSVQAEDLAVYYCQQHYSTPYTFGGGTKLEIK
notes: Human IgG4 chimeric antibody with S228P mutation at the Fc region; also called chimeric antibody 043c; parental antibody 043c
Take B2: the “relative binding signal of Ab2 in tandem” value in experiment [1] is 3%; in [17] it was 100%. In addition, the OD450 is 0.08 in experiment [2]; 0.11 in experiment [4]; 0.13 in experiment [5]; 0.08 in [9]; 0.15 in experiment [10]; 0.08 in [11]. In experiment [3], this molecule returned an IC50 of 0.1 nM. Besides, the “TOP Blocking (%)” value in experiment [3] came to 100%. Besides, the Kd in experiment [6] turned out to be 0.74 nM. Besides, the koff in experiment [6] is 0.000557 s⁻¹. Moreover, the association rate constant (kon) in experiment [6] was determined as 756000 M⁻¹ s⁻¹. Also, the binding result in experiment [7], in experiment [15], in [16], in [18], in experiment [19] and in experiment [20] was “no binding (tested: 0.5 ug/mL)” each time. For the same molecule, the “Inhibition (%)” value in [8] is 90%; in experiment [12], 71%; in experiment [13], 100%; in experiment [14], 93%.

B3: 1E1 (antibody, V domains shown)
VH: QVQLQQWGAGLLKPSETLSLTCAVYGGSFSGYYWSWIRQPPGKGLEWIGEINHSGSTNYNPSLKSRVTISVDTSKNQFSLKLSSVTAADTAVYYCARLPTRWVTTRYFDLWGRGTLVTVSS
VL: QSVLTQPPSVSGAPGQRVTISCTGSSSNIGAGYDVHWYQQLPGTAPKLLIYGNSNRPSGVPDRFSVSKSGASASLAITGLQAEDEADYYCQSFDNSLSAYVFGGGTQLTVL
notes: Human IgG4 monoclonal antibody with S228P in the constant region, made according to US 2018/0298096 A1; also called benchmark antibody 1E1
For the molecule B3, the entries for the “relative binding signal of Ab2 in tandem” value in experiment [1] and in [17] were 100% and 17%, respectively. In addition, the OD450 turned out to be 0.07 in experiment [2]; 0.1 in experiment [4]; 0.12 in experiment [5]; 0.08 in experiment [9]; 0.15 in experiment [10]; 0.07 in [11]. The molecule further yielded an IC50 in [3] of 0.32 nM. For the same molecule, the “TOP Blocking (%)” value in experiment [3] is 100%. In experiment [6], the Kd amounted to 8.07 nM. In [6], the koff is 0.00204 s⁻¹. Further, the kon in experiment [6] is 253000 M⁻¹ s⁻¹. Also, the binding result in experiment [7], in [15], in experiment [16], in experiment [18], in experiment [19] and in experiment [20] was “no binding (tested: 0.5 ug/mL)” throughout. Further, the “Inhibition (%)” value in [8] came out at 93%; in experiment [12], 70%; in experiment [13], 100%; in [14], 94%.
